B1: Azoarcus group I ribozyme (parent)
chain: GUGCCUUGCGCCGGGAAACCACGCAAGGGAUGGUGUCAAAUUCGGCGAAACCUAAGCGCCCGCCCGGGCGUAUGGCAACGCCGAGCCAAGCUUCGGCGCCUGCGCCGAUGAAGGUGUAGAGACUAGACGGCACCCACCUAAGGCAAACGCUAUGGUGAAGGCAUAGUCCAGGGAGUGGCGAAAGUCACACAAACCGG

The variants in this series derive from B1. Nature of the series: reverse-splicing fitness (ratio to wild type); higher = more active; in vitro selection; Mg2+ level not given. In short, it runs like this:
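An in vitro group I ribozyme library with randomized positions was T7-transcribed and gel-purified. In triplicate, 10 pmol RNA in EPPS pH 7.5 was reacted with 50 pmoles of a 30-nt RNA substrate for 1 h at 37 °C across several added MgCl2 levels (1–48 mM), then stopped with EDTA. Products were reverse transcribed from a substrate-complementary primer, PCR-amplified and sequenced (HiSeq 4000). Fitness is a variant's read proportion after selection over that before, normalised to wild type.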
Turning to A111C A120U A145C C150A C169G U176A, the reverse-splicing fitness was 0.00305.
Regarding A111C A120U A145U, the reverse-splicing fitness is 0.629.
Regarding A111C A120U A145C, the reverse-splicing fitness worked out at 0.598.
For the variant A111C A120U A145G, the reverse-splicing fitness was 0.675.
In the case of A111C A120U C150A U176C it was 0.0376; in that of A111C A120U C150A U176G, 0.0153; in that of A111C A120U C150A U176A, 0.0268.
In the case of A111C A120U C150A C169A, the reverse-splicing fitness is 0.00557.
Consider A111C A120U C150A C169G, for which the reverse-splicing fitness came out at 0.00691.
As to A111C A120U C150A C169U, the reverse-splicing fitness stood at 0.00953.
For the variant A111C A120G C169G, the reverse-splicing fitness came out at 0.22.
With A111C A120G C169U, the reverse-splicing fitness was 0.17.
Turning to A111C A120G C169A, the reverse-splicing fitness was found to be 0.131.
As to A111C A120G A145U C169G U176C, the reverse-splicing fitness was 0.0343.
In the case of A111C A120G A145U C169G U176A, the reverse-splicing fitness came to 0.0277.
A111C A120G A145U C169G U176G: the reverse-splicing fitness is 0.00448.
In the case of A111C A120G A145U C169A U176C, the reverse-splicing fitness worked out at 0.0182.
On to A111C A120G A145U C169A U176G, for which the reverse-splicing fitness was determined as 0.0051.
With A111C A120G A145U C169A U176A the figure was 0.0166; with A111C A120G A145U C150U C169G U176A, 0.0211.
With A111C A120G A145U C150U C169G U176C, the reverse-splicing fitness came out at 0.0326.
As to A111C A120G A145U C150U C169G U176G, the reverse-splicing fitness stood at 0.00542.
With A111C A120U A145G C169G U176G the figure was 0.00174.
Consider A111C A120U A145G C169G U176A, for which the reverse-splicing fitness was determined as 0.0064.
A111C A120U A145G C169G U176C: the reverse-splicing fitness was 0.0098.
Turning to A111C A120U A145G C150A C169A U176G, the reverse-splicing fitness was 0.00318.
With A111C A120U A145G C150A C169A U176C, the reverse-splicing fitness worked out at 0.00438.
A111C A120U A145G C150A C169A U176A: the reverse-splicing fitness is 0.0071.
With A111C A120G A145U C150U C169U U176C, the reverse-splicing fitness is 0.0353.
In the case of A111C A120G A145U C150U C169U U176G, the reverse-splicing fitness came to 0.00595.
Consider A111C A120G A145U C150U C169U U176A, for which the reverse-splicing fitness was 0.034.
In the case of A111C A120U A145G C150G C169G U176C it was 0.00876.
For A111C A120U A145G C150G C169G U176G, the reverse-splicing fitness stood at 0.00386.
With A111C A120U A145G C150G C169G U176A, the reverse-splicing fitness was 0.00935.
Turning to A111C A120U A145G C150U C169G U176G, the reverse-splicing fitness turned out to be 0.00262.
Turning to A111C A120U A145G C150U C169G U176C, the reverse-splicing fitness stood at 0.00994.
With A111C A120U A145G C150U C169G U176A the figure was 0.0074; with A111C A120U A145G U176C, 0.277.
A111C A120U A145G U176G: the reverse-splicing fitness worked out at 0.0786.
In the case of A111C A120U A145G U176A, the reverse-splicing fitness came to 0.221.
With A111C A120U A145C C150A C169A the figure was 0.00208; with A111C A120U A145C C150A C169U, 0.00533; with A111C A120U A145C C150A C169G, 0.0044.
Regarding A111C A120U A145G C150G, the reverse-splicing fitness stood at 0.0721.
As to A111C A120U A145G C150U, the reverse-splicing fitness was determined as 0.549.
With A111C A120U A145G C150A the figure was 0.099; with A111C A120U A145G C150A U176G, 0.0111.
In the case of A111C A120U A145G C150A U176A, the reverse-splicing fitness was 0.046.
A111C A120U A145G C150A U176C: the reverse-splicing fitness worked out at 0.0554.
In the case of A111C A120G C150A C169U U176G it was 0.0056.
Consider A111C A120G C150A C169U U176C, for which the reverse-splicing fitness came to 0.024.
A111C A120G C150A C169U U176A: the reverse-splicing fitness came out at 0.0211.
Regarding A111C A120G A145U U176G, the reverse-splicing fitness is 0.00568.
Turning to A111C A120G A145U U176A, the reverse-splicing fitness turned out to be 0.0392.
Turning to A111C A120G A145U U176C, the reverse-splicing fitness worked out at 0.0406.
A111C A120G A145U C150U C169A U176C: the reverse-splicing fitness stood at 0.0175.
For A111C A120G A145U C150U C169A U176G, the reverse-splicing fitness was found to be 0.00499.
As for A111C A120G A145U C150U C169A U176A, the reverse-splicing fitness came out at 0.0161.
Take A111C A120G A145U C169U U176G: the reverse-splicing fitness amounted to 0.00716.
With A111C A120G A145U C169U U176C, the reverse-splicing fitness amounted to 0.0424.
In the case of A111C A120G A145U C169U U176A, the reverse-splicing fitness was 0.042.
As to A111C A120U A145U C150U C169U U176G, the reverse-splicing fitness was found to be 0.00224.
On to A111C A120U A145U C150U C169U U176C, for which the reverse-splicing fitness was 0.0142.
On to A111C A120U A145U C150U C169U U176A, for which the reverse-splicing fitness is 0.00859.
Take A111C A120G C150A U176C: the reverse-splicing fitness amounted to 0.0209.
On to A111C A120G C150A U176A, for which the reverse-splicing fitness turned out to be 0.0175.
In the case of A111C A120G C150A U176G it was 0.00592; in that of A111C A120G A145U C150U, 0.113.
As for A111C A120U A145C C150U C169A U176A, the reverse-splicing fitness was 0.00274.
Regarding A111C A120U A145C C150U C169A U176G, the reverse-splicing fitness stood at 0.00188.
In the case of A111C A120U A145C C150U C169A U176C it was 0.00249; in that of A111C A120U A145C C150G U176C, 0.0215.
Regarding A111C A120U A145C C150G U176G, the reverse-splicing fitness is 0.00459.
With A111C A120U A145C C150G U176A the figure was 0.0207; with A111C A120U A145U C150A C169G U176G, 0.00199.
In the case of A111C A120U A145U C150A C169G U176C, the reverse-splicing fitness stood at 0.00388.
A111C A120U A145U C150A C169G U176A: the reverse-splicing fitness was 0.00295.
For A111C A120G C150G C169U U176G, the reverse-splicing fitness worked out at 0.00441.
Regarding A111C A120G C150G C169U U176C, the reverse-splicing fitness turned out to be 0.0154.
With A111C A120G C150G C169U U176A the figure was 0.00966; with A111C A120U A145C C150U C169U, 0.0171; with A111C A120U A145C C150U C169G, 0.0128.
Regarding A111C A120U A145C C150U C169A, the reverse-splicing fitness came out at 0.00231.
Consider A111C A120G A145U C150G U176G, for which the reverse-splicing fitness stood at 0.00305.
